Test results from US7052704B2, “Methods and compositions for lipidization of hydrophilic molecules” (University of Southern California, priority 1995, dated 2006).

Tests used:
[1] = test system: C3H 10T1/2(clone 8) cells; assay: In vitro transformation assay (MCA-induced); assay type: cell-based; details: for transformed foci in the dishes scored / Fraction of dishes containing transformed foci / No. of dishes with transformed foci/No. of dishes: MCA 1 μg/ml 24 hr, then conjugates 1.0 μg/ml for first three weeks; for Fraction of dishes containing transformed foci / No. of dishes with transformed foci/No. of dishes: scored at six weeks; for retention of the biological (anti-transformation) activity of BBI: 1.0 μg/ml
Experimental: Transformation assays were carried out using C3H 10T1/2(clone 8) cells according to the published recommendations [Reznikoff, C. A. et al. (1973) Cancer. Res. 33, 3239–3249; Reznikoff, C. A. et al. (1973) Cancer. Res. 33, 3231–3238]. Stock cultures of mycoplasma-free cells were maintained by passing 50,000 cells per 75 cm^2 flask every seven days. Using this schedule, the cells were always passed approximately 2 days before reaching confluence. The stock culture was grown in Eagle's basal medium supplemented with 10% FBS, penicillin (100 units), and streptomycin (100 μg) and used for the transformation assays at passages of 9 to 14. The cells were passed by treating the stock cells with trypsin (0.1%) in PBS for 5 min and quenching the trypsin with 5 ml of the medium. This procedure was adapted to minimize spontaneous transformation in the stock cultures and maximize the plating efficiency in the petri dishes. The FBS stock used in the cultures was pre-screened to ensure that the serum was able to support the expression and the growth of the transformed cells.
For the transformation assays, C3H 10T1/2 cells (1000/dish) were seeded into 60 mm petri dishes and allowed to grow in a humidified 5% CO2 atmosphere in Eagle's basal medium, supplemented with 10% FBS, penicillin (100 units), and streptomycin (100 μg), for 24 hr. Subsequently, the cells were initiated by treatment with 25 μl of the 3-methylcholanthrene (MCA) in acetone stock solution ([…]) to a final concentration of 1 μg/ml of MCA (5 μg/5 ml). The cells were allowed to grow in the presence of the carcinogen or solvent for 24 hr, and the medium in each dish was then replaced with fresh medium containing no carcinogen or solvent. The medium in the dishes was replaced twice per week for the first two weeks of the assay, and thereafter once a week for the remainder four weeks of the assay. In the experiments designed to determine the transformation inhibitory activity of the conjugates, the cells were maintained in the medium containing the conjugates (1 μg/ml) for the first three weeks of the assay; thereafter, the cells were maintained in medium containing no added conjugates.
Six weeks after the carcinogen treatment, the cells were inspected under a microscope for adherence to the culture dishes and were washed with PBS and then fixed in 100% methanol. The fixed monolayers were then stained with Giemsa stain. 20 dishes per group were treated in each experiment. In addition to the test groups, all the transformation assays contained at least three other groups: negative control (not treated with carcinogen or solvent), acetone control (treated with 25 μl of acetone), and positive control [treated with MCA (1 μg/ml) in 25 μl of acetone]. The transformed foci (>3 mm in diameter) in the plates were studied under a microscope and classified according to published guidelines as types I, II, or III [Landolph, J. R. (1985) Transfomatin assay of established cell lines: Mechanism and Application (ed. Kakunaga, T., and Yamasaki, H.) IARC Scientific Publications, Lyon, France pp. 185–201]. Briefly, type III foci were dense, multilayered, basophilic, areas of cell growth which stained to a deep blue color with Giemsa and had rough criss-crossed edges. Type II foci were also dense, multilayered, areas of cell growth, but were stained to a purple color with Giemsa and had smoother, more defined edges compared to Type III foci. Type I foci were not scored in the assay.
BBI, either as the free protein or in conjugated form to palmitic or oleic acid, was added to the cultures at 1.0 μg/ml for the first three weeks of the transformation assay period starting immediately after the MCA treatment. MCA-treated cells were exposed to 3-methylcholanthrene, dissolved in 25 /μl of acetone, at a concentration of 1 μg/ml for 24 hr. Acetone-treated cells were exposed to 25 μl of acetone for 24 hr only. […]

[2] = test system: C3H 10T1/2 cells; assay: Plating efficiency in conjunction with transformation assay; assay type: cell-based; details: 200 cells/dish, 10 days; conjugates 1.0 μg/ml after MCA 1 μg/ml 24 hr
Experimental: The plating efficiency (PE) of the cells was also studied in conjunction with each of the transformation assays. To determine the PE of the cells in the different treatment groups, cells (200 cells/dish) were seeded into three 60-mm petri dishes per experiment group and treated in the identical manner as the transformation assay cells. The cells in these assays were terminated at 10 days, fixed with 100% methanol, and stained with giemsa; the colonies of 50 cells or more visible under a microscope were then counted. The plating efficiency is defined as the (number of colonies/number of cells seeded)*100.

[3] = test system: Human colon carcinoma cells (Caco-2)
[4] = mouse, in vivo, iv, 3 mg/kg
[5] = test system: Caco-2 monolayers; assay: Transport of single- and multiple-conjugates across Caco-2 monolayers in transwells; assay type: cell-based, Human; details: for order of the transport extent (cumulative transport): Caco-2 transwells, n=3
Experimental: Confluent cell monolayers, 2 to 3 weeks old, and having a TEER value of approximately 500 Ωcm^2, were first incubated with Dulbecco's MEM containing 1% of FBS for 30 min at 37° C. Subsequently, the incubation medium was removed, and the ^125I-BBI (10 μg/ml) conjugates in 1.5 ml of the medium was added to the apical chamber of the transwells. To the basal chamber, 2.5 ml of the medium was added and the transwells were incubated at 37° C. At predetermined times, the entire basal chamber medium (2.5 ml) from each transwell was removed and counted for radioactivity using a gamma counter. In each experiment, typically seven samples were taken at 1, 2, 3, 4, 5, 6 and 24 hr post-incubation. After the 24 hr samples were taken, the cell monolayers were rinsed three times with ice-cold PBS, cut out of the inserts, and counted for accumulated radioactivity using a gamma counter.
The integrity of the ^125I-BBI conjugates transported across the monolayers was studied using Sephadex G50 gel-filtration chromatography. Briefly, after the basal medium was sampled at 24 hr, 1.0 ml of the medium was centrifuged at 2000 rpm and then eluted from a G50 column (10 ml) using PBS; 1 ml fractions were collected and the fraction-associated radioactivity was determined using a gamma counter. Intact conjugates eluted at column void volume and fragments smaller than 1 kDa were eluted at or above the column volume.
In the transwell experiments, the conjugates were incubated with the apical side of the cells for 1 hr at 37° C. The transwells were then rinsed three times with ice-cold PBS and then reincubated with serum free medium. The release of the conjugates into the apical and the basal medium was chased for 24 hr by counting the entire basal or the apical medium at different times. The total counts obtained at the end of the chase period (transwells+media counts were added, and the release of the conjugates (% of total) at different times was calculated. To ensure that the counts obtained in the transwells at 24 hr were due to the presence of the conjugates in the cells and not non-specific binding to the plastic, the transwells were exposed to trypsin for 10 min, rinsed three times with ice-cold pbs, and subsequently counted for accumulated radioactivity.
BBI was modified with 2 or 4 palmitic acids, and the transport was determined in transwells. The cumulative transport of BBI, BBI modified with 4 palmitic acids, and BBI modified with 2 palmitic acids in Caco-2 monolayers were determined as BBI (ng/monolayer) ± SEM, n=3. The order of the transport extent was BBIssPal(4)>BBI>BBIssPal(2). The results of the internalization of the conjugates into the same cells were determined as the ng of BBI internalized per monolayer. […] The basal media obtained at 24 hr from the transwells was analyzed using a G50 column. […] However, a small, but significant, amount of the basal media of BBIssPal(2) consisted of intact conjugate. This quantity consisted of between about 10 and about 20% of the total radioactivity present in the basal medium.

Row | Molecule | transformed foci in the dishes scored [1] | Fraction of dishes containing transformed foci [1] | No. of dishes with transformed foci/No. of dishes [1] | Plating Efficiency (%) [2] [%] | retention of the biological (anti-transformation) activity of BBI [1] | binding to BSA [3] | internalization, fold increase over that of BBI [3] [fold] | reduction of uptake after reduction with DTT [3] | reduction of uptake by defatted-BSA [3] [%] | uptake, fold higher than 125I-BBI [3] | uptake, fold higher than native-BBI [3] [fold] | uptake, fold higher than that of 125I-BBI [3] [fold] | kidney clearance, fold lower than native-BBI [4] | liver accumulation, fold higher than BBI [4] | lung accumulation, fold higher than BBI [4] | retention in the liver at 24 hr [4] | blood levels, fold higher than BBI [4] | order of the transport extent (cumulative transport) [5] | transcytosis across the monolayers (G50 analysis of basal media) ([5]; basal media at 24 hr) | internalization into the cells (rank) ([5]; same Caco-2 monolayers, per monolayer)
1 | Cc1ccc2cc3c(ccc4ccccc43)c3c2c1CC3 [MCA, 3-methylcholanthrene, reference compound] | 6 out of the 19 dishes scored contained type III foci | 0.32 | 6/19 | 21 ± 3.0 | – | – | – | – | – | – | – | – | – | – | – | – | – | – | – | –
2 | BBIssPal: palmityl disulfide conjugate of BBI, made from thiolated BBI and Pal-PDC (conjugate, UniProt P01055 40-110, looked up, palmityl disulfide conjugate, palmityl disulfide conjugate of BBI, made from thiolated BBI and Pal-PDC) Bowman-Birk type proteinase …: DDESSKPCCDQCACTKSNPPQCRCSDMRLNSCHSACKSCICALSYPAQCFCVDITDFCYEPCKPSEDDKEN | one type II focus out of the 20 dishes | 0.05 | 1/20 | 23 ± 3.0 | retained the original biological activity of BBI | binds strongly to BSA | 35 | approximately 80% | 82 | approximately 100 fold | 10 | 80 | about 4 fold | approximately 5 fold | approximately 2 fold | remained high in the liver even at 24 hr post-injection | – | – | – | –
3 | BBIssOleic: oleic acid conjugated BBI, made by the identical procedure as BBIssPal (conjugate, UniProt P01055 40-110, looked up, oleic acid disulfide conjugate, oleic acid conjugated BBI, made by the identical procedure as BBIssPal) Bowman-Birk type proteinase …: DDESSKPCCDQCACTKSNPPQCRCSDMRLNSCHSACKSCICALSYPAQCFCVDITDFCYEPCKPSEDDKEN | no transformed foci | 0 | 0/20 | 24 ± 3.5 | retained the original biological activity of BBI | – | – | – | – | about 108 fold | – | – | about 4 fold | about 4 fold | about 2 fold | significant levels of the conjugate present in the liver even at 24 hr post-injection | about 4 fold | – | – | –
4 | BBIssPal(4): BBI modified with 4 palmitic acids (conjugate, UniProt P01055 40-110, looked up, 4 palmityl disulfide groups, BBI modified with 4 palmitic acids) Bowman-Birk type proteinase …: DDESSKPCCDQCACTKSNPPQCRCSDMRLNSCHSACKSCICALSYPAQCFCVDITDFCYEPCKPSEDDKEN | – | – | – | – | – | – | – | – | – | – | – | – | – | – | – | – | – | BBIssPal(4)>BBI>BBIssPal(2) | neither BBI nor BBIssPal(4) was transcytosed | highest uptake
5 | BBIssPal(2): BBI modified with 2 palmitic acids (conjugate, UniProt P01055 40-110, looked up, 2 palmityl disulfide groups, BBI modified with 2 palmitic acids) Bowman-Birk type proteinase …: DDESSKPCCDQCACTKSNPPQCRCSDMRLNSCHSACKSCICALSYPAQCFCVDITDFCYEPCKPSEDDKEN | – | – | – | – | – | – | – | – | – | – | – | – | – | – | – | – | – | BBIssPal(4)>BBI>BBIssPal(2) | – | –
